The values below come from article PMC6529640, “Bacterioferritin of Magnetospirillum gryphiswaldense Is a Heterotetraeicosameric Complex Composed of Functionally Distinct Subunits but Is Not Involved in Magnetite Biomineralization” (mBio, 2019).

The data set concerns the molecule itself. Nature of the data set: native gel or EMSA; BN-PAGE of purified proteins on polyacrylamide gradient gels, run at 4°C, Coomassie stained; Bfr2 and Bfr12 ~22 μM, Bfr1 ~30 μM in 50 mM Tris-HCl, 50 mM NaCl, pH 8.0, or Bfr12 dialysed against 50 mM imidazole-HCl, 50 mM NaCl, pH 7; for Bfr12 also a second dimension of SDS-PAGE (2D-BN/SDS-PAGE). (In general: A gel shift assay detects complexes by their altered migration in electrophoresis.)

B1: Bfr1 of MSR-1 expressed alone from pET-51b-Bfr1 (natural protein, Magnetospirillum gryphiswaldense MSR-1, UniProt A0ACM8UIY5 1-159, looked up)
chain: MRGSPKVISVLNGLLTGELTAADQYFVHARMLENWGFKVLYERIEHERHDELDHAGLLINRILFLEGVPDVASRAALNIGSDVPKMMANDLAYELQVVDELKAAIALCESERDYDTRRILVHLLEETEQDHVRWLEVQVGLIDKLGLKNYLQSAAGEIA
notes: bacterioferritin subunit Bfr1, Magnetospirillum gryphiswaldense MSR-1, locus MSR1_27050; expressed without Bfr2
By stoichiometry N is commonly meant the number of molecules, sites or subunits per partner or assembly. Take B1: the “stoichiometry N” value was found to be 3.
